Read-outs that look alike come from different tables or passages of the source. Ends that are not written are not given here. rhodamine = not defined here
T1: GST-SH3 domain (derived from BIN1) (human)
T1 sequence (O00499 whole entry, looked up): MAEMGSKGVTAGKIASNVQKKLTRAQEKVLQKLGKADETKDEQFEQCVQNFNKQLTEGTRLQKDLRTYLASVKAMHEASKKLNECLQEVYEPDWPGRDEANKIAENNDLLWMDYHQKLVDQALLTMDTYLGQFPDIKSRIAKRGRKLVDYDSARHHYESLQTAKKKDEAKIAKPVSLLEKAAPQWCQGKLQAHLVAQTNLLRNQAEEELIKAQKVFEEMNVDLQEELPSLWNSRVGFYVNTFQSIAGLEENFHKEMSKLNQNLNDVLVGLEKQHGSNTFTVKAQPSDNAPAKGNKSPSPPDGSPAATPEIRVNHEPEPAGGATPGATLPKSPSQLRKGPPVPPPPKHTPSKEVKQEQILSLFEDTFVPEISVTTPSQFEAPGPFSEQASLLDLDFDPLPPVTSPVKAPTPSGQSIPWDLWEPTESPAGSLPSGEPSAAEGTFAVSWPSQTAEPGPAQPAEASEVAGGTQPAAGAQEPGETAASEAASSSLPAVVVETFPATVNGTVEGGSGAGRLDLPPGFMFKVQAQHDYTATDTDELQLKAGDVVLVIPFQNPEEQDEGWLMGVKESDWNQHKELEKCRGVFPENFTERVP

T2: Alexa488 labeled BIN1-FL (human, UniProt O00499-8 1-454, Alexa 488 C5-maleimide on endogenous cysteine residues)
T2 sequence (looked up): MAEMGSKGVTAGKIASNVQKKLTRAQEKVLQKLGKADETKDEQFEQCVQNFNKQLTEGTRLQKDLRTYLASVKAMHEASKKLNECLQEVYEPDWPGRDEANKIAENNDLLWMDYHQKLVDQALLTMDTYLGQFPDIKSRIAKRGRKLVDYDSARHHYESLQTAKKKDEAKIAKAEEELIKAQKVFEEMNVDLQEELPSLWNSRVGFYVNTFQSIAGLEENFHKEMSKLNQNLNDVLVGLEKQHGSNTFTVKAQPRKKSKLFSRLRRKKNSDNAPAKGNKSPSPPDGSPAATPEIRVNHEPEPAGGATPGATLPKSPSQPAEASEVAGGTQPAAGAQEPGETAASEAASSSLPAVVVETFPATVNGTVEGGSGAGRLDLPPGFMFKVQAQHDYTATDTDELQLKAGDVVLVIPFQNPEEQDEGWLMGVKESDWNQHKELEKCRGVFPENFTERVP


Tests used:
[1] = target: T1, GST-SH3 domain (derived from BIN1) (human); experiment: ITC
[2] = target: T1, GST-SH3 domain (derived from BIN1) (human); experiment: ITC; remark: listed apart in the source
Alexa488 labeled BIN1-FL = target: T2, Alexa488 labeled BIN1-FL; experiment: recruitment of fluorescent peptide to protein-coated giant vesicles
[3] = target: T1, GST-SH3 domain (derived from BIN1) (human); experiment: ITC; remark: listed apart in the source
[4] = target: T1, GST-SH3 domain (derived from BIN1) (human); experiment: ITC; remark: listed apart in the source

Binder	Kd [1] [µM]	Kd [2] [µM]	binding result (Alexa488 labeled BIN1-FL)	stoichiometry N [3]	Kd [4] [µM]	stoichiometry N [2]
PPQIPSRPVRIPPGI [dynamin 2-derived proline-rich domain peptide]	68.3	13.7				
rhodamine-PPQIPSRPVRIPPGI (reading uncertain) [rhodamine-labeled PRD peptide]			binds			
RKKSKLFSRLRRKKN [exon10 peptide]		3.9		1	11.3	1

Source: PMC4245986 (Biochemistry, 2014)
